Results: patent US8962697

Key:
LAR-7022 = tested on: T1, LAR-7022
T1 sequence: ADDIGTSRPQE

LAR-7047 = tested on: T2, LAR-7047
T2 sequence: VFFRRQTA

LAR-7048 = tested on: T3, LAR-7048
T3 sequence: PRRICV

Which “hydrolysis of the peptide substrate, fragments by mass spectrometry” value (LAR-7022) does the source give for Staphopain A and Staphopain B here?
Its value is “Degradation of LAR-7022 (b-ADDIG-TSRPQE): 1188.56 amu produced specific fragment pick: 717.37 corresponding to TSRPQE sequence”.

What about the “degradation of the control peptide” value (LAR-7047) of the same substance?
The value was “No degradation was observed in these systems”.

And the “degradation of the control peptide” value (LAR-7048)?
The value was “No degradation was observed in these systems”.
